According to patent US20020037853A1:
No end group written: not given here.

Tests used:
[1] = target: cell surface receptors for collagen on human dermal fibroblasts; test: biological (cell-binding) activity relative to P-15; assay not described there
[2] = target: cell surface receptors for collagen on human dermal fibroblasts; test: cell-binding activity relative to the inventive peptide of Examples 1 and 2
[3] = target: cell surface receptors for collagen on human dermal fibroblasts; test: attachment of fibroblasts to collagen-coated dishes, peptide in the medium at 35 × 10^-6 M; competitor collagen
[4] = target: cell surface receptors for collagen on human dermal fibroblasts; test: attachment of fibroblasts to collagen-coated dishes, peptide in the medium at 7.2 × 10^-6 M; competitor collagen
[5] = target: cell surface receptors for collagen on human dermal fibroblasts; test: attachment of fibroblasts to collagen-coated dishes, peptide in the medium at 36 × 10^-6 M; competitor collagen
[6] = target: cell surface receptors for collagen on human dermal fibroblasts; test: about 100,000 human fetal dermal fibroblasts on coated glass coverslips, 15 min, attached cells counted; uncoated control 7.01
[7] = target: cell surface receptors for collagen on human dermal fibroblasts; test: fibroblast attachment to coated coverslips, 15 min
[8] = target: cell surface receptors for collagen on human dermal fibroblasts; test: fibroblast attachment to coated coverslips, 15 min; reference collagen
[9] = target: cell surface receptors for collagen on human dermal fibroblasts; test: various other similar cell attachment studies on glass or polystyrene
[10] = target: cell surface receptors for collagen on human dermal fibroblasts; test: attachment of fibroblasts to collagen-coated dishes, polyproline in the medium at 1.7 × 10^-6 M; competitor collagen
[11] = target: cell surface receptors for collagen on human dermal fibroblasts; test: cell-binding activity relative to the SEQ ID NO:1 peptide

How did the biological activity relative to P-15 [1] turn out when dipeptide -Ile-Ala- was run?
The biological activity relative to P-15 was 60%.

GPQGIAGQR (SEQ ID NO:2) was tested. Which Relative Cell-Binding Activity (% relative to the SEQ ID NO:1 peptide) [2] did it give?
Its Relative Cell-Binding Activity (% relative to the SEQ ID NO:1 peptide) is 100.

With QGIAGQR (SEQ ID NO:4) as the substance, how does the Relative Cell-Binding Activity (% relative to the SEQ ID NO:1 peptide) [2] read?
Its Relative Cell-Binding Activity (% relative to the SEQ ID NO:1 peptide) is 60.

“human preangiotensinogen 1-14 (from UniProt P01019 25-38) (peptide)” was tested. Which % Inhibition of Cell Attachment [3] did it give?
The % Inhibition of Cell Attachment was 12%.

And the % of Maximal Cell Attachment [3]?
Its % of Maximal Cell Attachment is 88%.

“Dynorphin 1-13 (from UniProt P01213 207-219) (peptide)” was tested. Which % Inhibition of Cell Attachment [3] did it give?
The % Inhibition of Cell Attachment was 19%.

What about the % of Maximal Cell Attachment [3] of the same substance?
The % of Maximal Cell Attachment was 81%.

FGIAGF (SEQ ID NO:5) was tested. Which Relative Cell-Binding Activity (% relative to the SEQ ID NO:1 peptide) [2] did it give?
The Relative Cell-Binding Activity (% relative to the SEQ ID NO:1 peptide) was 87.

Which results are given for “Inventive peptide Gly-Thr-Pro-Gly-Pro-Gln-Gly-Ile-Ala-Gly-Gln-Arg-Gly-Val-Val (SEQ ID NO:1)”?
% Inhibition of Cell Attachment [4]: 85%; % of Maximal Cell Attachment [4]: 15%; % Inhibition of Cell Attachment [5]: 88%; % of Maximal Cell Attachment [5]: 12%; Concentration of Cells (relative binding of cells after 15 minutes) [6]: 11.1; increase in cell binding over the control (no collagen or peptide) [7]: 60%; increase in cell binding over collagen-coated dishes [8]: 40%; potency in binding cells relative to collagen (fold over collagen) [9]: 2

For QGIAGQ (SEQ ID NO:3), which Relative Cell-Binding Activity (% relative to the SEQ ID NO:1 peptide) [2] is on record?
Its Relative Cell-Binding Activity (% relative to the SEQ ID NO:1 peptide) is 120.

How did the % Inhibition of Cell Attachment [10] turn out when Polyproline (peptide) was run?
The % Inhibition of Cell Attachment was 10%.

And the % of Maximal Cell Attachment [10]?
Its % of Maximal Cell Attachment is 90%.

How did the cell-binding activity relative to the SEQ ID NO:1 peptide [11] turn out when “Gln-Gly-Ile-Ala-Gly (SEQ ID NO:8) (peptide)” was run?
Its cell-binding activity relative to the SEQ ID NO:1 peptide is 42%.

“Rat tail tendon collagen (rat tail type I collagen) (from UniProt P02454 152-1207; P02466 86-1125)” was tested. Which Concentration of Cells (relative binding of cells after 15 minutes) [6] did it give?
Its Concentration of Cells (relative binding of cells after 15 minutes) is 8.59.

Which Relative Cell-Binding Activity (% relative to the SEQ ID NO:1 peptide) [2] does the source give for QGAIAQ (SEQ ID NO:7) here?
The Relative Cell-Binding Activity (% relative to the SEQ ID NO:1 peptide) was 70.

For “Gly-Ile-Ala-Gly-Gln (SEQ ID NO:6) (peptide)”, which Relative Cell-Binding Activity (% relative to the SEQ ID NO:1 peptide) [2] is on record?
Its Relative Cell-Binding Activity (% relative to the SEQ ID NO:1 peptide) is 70.
